The values that follow come from patent US20040009530A1 (ZYOMYX, published 2004).

The chains are these.
B1: engineered chaperonin protein SP4-5 (designed binder)
chain: DDDRIPASGIVIARPGESAFMPDVVKNAKIALIDSALEIKKTEIEAKVQISDPSKIQDFLNQETNTFKQMVEKIKKSGANVVLCNGDQADVAYDYLAKEGIYAVHFVDESDMEKLAKATGAKIVTDLDDLTPSVLGEAETVEERKYTEGVPTYVMGCKGSVSHHHHHHSEQKLISEEDLLRLE
notes: also called engineered protein clone SP4-5; not shown: FLAG-tag from the expression vector upstream of the insertion site
B2: engineered chaperonin protein SP4-2 (designed binder)
chain: DDDRIPASGIVIVGHNKVPSMPRVVKNAKIALIDSALEIKKTEIEAKVQISDPSKIQDFLNQETNTFKQMVEKIKKSGANVVLCGYKNLTVAYEYLAKEGIYAVYHVDESDMEKLAKATGAKIVTDLDDLTPSVLGEAETVEERGTANAPATYVMGCKGSVSHHHHHHSEQKLISEEDLLRLE
notes: not shown: FLAG-tag from the expression vector upstream of the insertion site
B3: engineered chaperonin protein SP4-1 (designed binder)
chain: DDDRIPASGIVIDRVGRDSNMPHVVKNAKIALIDSALEIKKTEIEAKVQISDPSKIQDFLNQETNTFKQMVEKIKKSGANVVLCADDYAHVAYDYLAKEGIYAVGYVTESDMEKLAKATGAKIVTDLDDLTPSVLGEAETVEERPWGNNKETYVMGCKGSVSHHHHHHSEQKLISEEDLLRLE
notes: Protein-level screening was 'similar to that for the HP6054 selections', that is, with a FLAG-tag vector and anti-FLAG-HRP detection; not shown: FLAG-tag from the expression vector upstream of the insertion site
B4: engineered rubredoxin protein D7 (designed binder)
chain: MAKWVCKICGYIYDEDAGEDPGHRSRYISPGTKFEELTTGWTCPICRCTNSTTSTNCFEKLED
notes: Engineered Pyrococcus furiosus rubredoxin; No tags are stated for the assayed construct
B5: engineered rubredoxin protein F3 (designed binder)
chain: MAKWVCKICGYIYDEDAGFVEYYDDGVISPGTKFEELHTAWTCPICSCTYNPFEKLED
notes: as for B4
B6: engineered rubredoxin protein G3 (designed binder)
chain: MAKWVCKICGYIYDEDAGFVEYYGHPNISPGTKFEELSRYVDGWTCPICSYGMPIFEKLED
notes: Engineered Pyrococcus furiosus rubredoxin

T1 sequence (P01215 25-116, chain 1 of 2, other chains not shown): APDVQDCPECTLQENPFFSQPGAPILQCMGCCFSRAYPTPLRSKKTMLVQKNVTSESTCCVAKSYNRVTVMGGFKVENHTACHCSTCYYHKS

One experiment concerns the target T1, human chorionic gonadotropin (human, UniProt P01215 25-116; P0DN86 21-165, biotinylated using an NHS-SS-biotin reagent (sites not given)).
T1 construct: The target was biotinylated and immobilized on Neutravidin- or Streptavidin-coated strip plates; also called hCG
Briefly: affinity ELISA, hCG immobilized, serial dilution of engineered protein. From the text: A total of 192 plaques were screened from the PEG precipitated and non-PEG precipitated eluted phage of round three (FIG. 9). Screening at the phage and protein level was similar to that for the HP6054 selections. The screen identified three engineered chaperonin proteins that were solubly expressed in E. coli and could bind hCG. Both the PEG-precipitated and non-PEG-precipitated selections gave similar results. In these affinity ELISA assays, the engineered chaperonin was serially diluted and the ELISA signal was plotted as a function of engineered chaperonin concentration to determine EC₅₀s, as above. The following EC₅₀ values for the three engineered library proteins was measured: […]
With B1, the EC50 turned out to be 630 nM. That is a sub-micromolar value.
On the same count and under the same terms, for B2 the value was 48000 nM; for B3, 5400 nM.

The target of a further experiment is T1, human chorionic gonadotropin. The experiment can be described thus: affinity ELISA, hCG immobilized, serial dilution of engineered rubredoxin. The text has this: The method used to identify engineered rubredoxin proteins that bind to human chorionic gonadotropin (hCG) were the same as the method used to identify chaperonin proteins that bind to hCG described in Section 6.9.6, above. The method identified three engineered rubredoxin proteins that could bind hCG. In the affinity ELISA assays, the engineered rubredoxin was serially diluted and the ELISA signal was plotted as a function of engineered rubredoxin concentration to determine EC₅₀s, as above. The following EC₅₀ values for the three library proteins was measured: […]
A general note: In an ELISA, binding on a coated surface is turned into a signal by an enzyme label.
For the molecule B4, the EC50 turned out to be 4000 nM.
On the same count and under the same terms, for B5 the value was 35 nM.
The same measure, in the same setting: to B6 belongs 81 nM.

The term EC50 denotes the concentration at which the effect is half-maximal.
